{"source": "paper PMC4403821", "parents": {"B1": {"name": "ORF74-Rluc8 [Kaposi's sarcoma-associated herpesvirus (KSHV)] / β-arrestin1-eYFP [not stated] (parent)", "chain 1": "MGDKGTRVFKKASPNGKLTVYLGKRDFVDHIDLVDPVDGVVLVDPEYLKERRVYVTLTCAFRYGREDLDVLGLTFRKDLFVANVQSFPPAPEDKKPLTRLQERLIKKLGEHAYPFTFEIPPNLPCSVTLQPGPEDTGKACGVDYEVKAFCAENLEEKIHKRNSVRLVIRKVQYAPERPGPQPTAETTRQFLMSDKPLHLEASLDKEIYYHGEPISVNVHVTNNTNKTVKKIKISVRQYADICLFNTAQYKCPVAMEEADDTVAPSSTFCKVYTLTPFLANNREKRGLALDGKLKHEDTNLASSTLLREGANREILGIIVSYKVKVKLVVSRGGLLGDLASSDVAVELPFTLMHPKPKEEPPHREVPENETPVDTNLIELDTNDDDIVFEDFARQRLKGMKDDKEEEEDGTGSPQLNNR", "chain 2": "MAAEDFLTIFLDDDESWNETLNMSGYDYSGNFSLEVSVCEMTTVVPYTWNVGILSLIFLINVLGNGLVTYIFCKHRSRAGAIDILLLGICLNSLCLSISLLAEVLMFLFPNIISTGLCRLEIFFYYLYVYLDIFSVVCVSLVRYLLVAYSTRSWPKKQSLGWVLTSAALLIALVLSGDACRHRSRVVDPVSKQAMCYENAGNMTADWRLHVRTVSVTAGFLLPLALLILFYALTWCVVRRTKLQARRKVRGVIVAVVLLFFVFCFPYHVLNLLDTLLRRRWIRDSCYTRGLINVGLAVTSLLQALYSAVVPLIYSCLGSLFRQRMYGLFQSLRQSFMSGATT"}}}
{"variants_of": "B1", "assay": "BRET", "conditions": "with β-arrestin1-eYFP; 300 nM CXCL1 (black bar); vehicle bar ~1.00; parent: 1.14; read off a plot", "units": {"response": "fold basal"}}
{"variant": "chain 2 MAAEDFLTIFLDDDESWNETLNMSGYDYSGNFSLEVSVCEMTTVVPYTWNVGILSLIFLINVLGNGLVTYIFCKHRSRAGAIDILLLGICLNSLCLSISLLAEVLMFLFPNIISTGLCRLEIFFYYLYVYLDIFSVVCVSLVRYLLVAYSTRSWPKKQSLGWVLTSAALLIALVLSGDACRHRSRVVDPVSKQAMCYENAGNMTADWRLHVRTVSVTAGFLLPLALLILFYALTWCVVRRTKLQARRKVRGVIVAVVLLFFVFCFPYHVLNLLDTLLRRRWIRDSCYTRGLINVGLAVTSLLQALYSAVVPLIYACLGALFRQRMYGLFQALRQAFMAGAAA", "note": "[chain 2 S315A S319A S331A S335A S338A T341A T342A]", "response": 1}
